Experimental data from patent publication US20250361295A1 (ANTENGENE BIOLOGICS, published 2025).
Positions count from the first letter of the chain named.

B1: ch42-C8-A12-F3-D11 (antibody, V domains shown)
VH: EVHLVESGGDLVKPGGSLKLSCAASGFTFSSHGMSWVRQTPDKRLEWVATISSGGIYTYHPDSVKGRFSISRDNAKKTLYLQMSSLKSEDTGIYYCTRGQVGNWYFDVWGAGTTVTVSS
VL: DIVITQSPAIMSASPGEKVTINCSASSSVSYMHWFQQTPGTSPKLWIYSTSNLASGVPARFSGSGSGTFYSLTISRMEAEDAATYYCQQRSSYPLTFGAGTKLELK
B2: ch25-G9-G4-C12 (antibody, V domains shown)
VH: B1 VH with H3Q, S52N, I56Y, H60Y, S69T, K77N, G92A, I93M, T97A, V101L
VL: B1 VL with I4M, N22T, T38K, F69S
B3: ch7-B4-C1-C9 (antibody, V domains shown)
VH: EVQLQQSGTELVKPGASVKLSCKASGYTFTNYWMHWVKQRPGQGLEWIGEINPSNGRTNYNEKFKTKATLTVDKSSSTAYMQLSSLTSEDSAVYYCARSTYYGYDWYFDVWGAGTTVTVSS
VL: DIVLTQSPSSMYASLGERVTITCKASQDINSYLSWFQQKPGKSPKTLIYRANRLLDGVPSRFSGGGSGQDYSLTISSLEHEDMGIYYCLQCDEFPHTFGGGTKLEIK
B4: ch4-E6-E4-B12 (antibody, V domains shown)
VH: EVQLKESGAELVKPGASVKLSCKASGYTFTSHWMHWVKQRPGQGLEWIGEINPSNGRTNYNEKFTSKATLTVDQSSSTAYMQLSSLTSEDSAVYYCARGNLTTVVPFDYWGQGTALTVSS
VL: DIVMTQSPSSLSASLGGKVTITCKASQDINKFIAWYQHKPGKGPRLLIHFTSTLQPGIPSRFSGSGSGRDYSFSISNLEPEDIATYFCLQYDLLLTFGGGTKLEIK
B5: ch2-H8-C9-F7-E2 (antibody, V domains shown)
VH: B4 VH with K5Q, E6Q, S31N, H32Y, T65K, Q74K, N100S, A115T
VL: DIQMTQTPSSLSASLGGKVTITCKASQDINNYIAWYQHKPGKGPRLLIHYTSTLQPGIPSRFSGSGSGRDYSFSISNLEPEDIATYFCLQYDILLTFGGGTKLEK
B6: ch36-F4-H1-D9 (antibody, V domains shown)
VH: EVKLLESGGGLVQPGGSLKLSCAASGFDFSRYWMIWVRQAPEKGLEWIGEINPDSSTINYTPSLKDKFIISRDNAKNTLYLQMSKVRSEDTALYYCARPYYRYDVGYFDVWGAGTTVTVSS
VL: DIVMTQAPKVLLVSAGDRVTISCKASQSVSNAVVWYQQKPGQSPKLLIFYASNRYTGVPDRFTGSGYGTDFTFSISTVQAEDLAVYFCQQDYSSPWTFGGGTKLEIK
B7: IO-202 (antibody, V domains shown)
VH: EVQLLESGGGLVQPGGSLRLSCAASGIDFSNHYYMYWVRQAPGKGLEWIGSIFSGDSASTYYADSAKGRFTISRDNSKNTLYLQMNSLRAEDTAVYYCARGMSTNDWASDLWGQGTLVTVSS
VL: DIQMTQSPSSLSASVGDRVTITCQASESINSIYLAWYQQKPGKAPKLLIYRASTLASGVPSRFSGSGSGTDFTLTISSLQPEDFATYYCQQSYDWGDVENTFGGGTKVEIK
B8: ch2-H1-D7-E5-D5 (antibody, V domains shown)
VH: EVHLVESGGGLVQPGGSRKLSCAASGFTFSSFGMHWVRQPPEKGLEWVAYISSGSSSIYYADTVKGRFTISRDNPKNTLFLQMTSLRSEDTAMYYCARGTGTGAMDYWGQGTSVTVSS
VL: DIQMTQTTSSLSASLGDRVTISCRTSQDISNYLNWYQQKPDGTVKLLIYYTSKLHSGVPSRFSGSGSGTDYSLTISNLDQEDIATYFCQQGNTLPWTFGGGTKLEIK
B9: ch25-E7-A10-H6 (antibody, V domains shown)
VH: B8 VH with H3Q, S31T, P40A, S57T, G99S
VL: B8 VL with T25A, N31K, K53R, D79E
B10: ch10-H9-E3-G3 (antibody, V domains shown)
VH: B8 VH with H3Q, L4R, P40A, S57A, I58M, G99S, T100D, T102K
VL: B8 VL with T25A, I48V, K53R, D79E
B11: ch27-D11-C2-A10 (antibody, V domains shown)
VH: B8 VH with H3Q, S31V, M34V, P40A, S56N, S57T, Y59H, N74I, G99S, T100S
VL: B8 VL with T7S, T20S, T25A, T43A, K53R, I106L
B12: ch26-H9-B9-B7 (antibody, V domains shown)
VH: B8 VH with H3Q, L4R, P40A, S57T, G99S, T100D, T102K
VL: B8 VL with Q3V, T7S, T25A, K53R, D79E
B13: ch27-F11-E10-G10 (antibody, V domains shown)
VH: B8 VH with H3Q, P40A, S57T, T69S, Y94F, G99S
VL: B8 VL with T25A, K53R, D79E, I106L
B14: ch27-G5-E9-B8 (antibody, V domains shown)
VH: B8 VH with H3Q, P40A, S57T, G99S
VL: B8 VL with R18S, I21F, T25A, Y49S, K53R, D79E, T93A

The binders below were run against T1, human LILRB4 (human, UniProt Q8NHJ6 22-448) (assay: FACS, 293F-hLILRB4 cells).
T1 construct: whole, on cells; also called hLILRB4
Procedure: (§1) The protocol for FACS analysis is described as follows: [0438] (a) Cells were harvested by centrifugation at 300 g for 3 mins. […] (b) The cells were washed for 2 times with FACS buffer by centrifuging at 300 g for 3 mins and the supernatant was discarded. [0440] (c) Cell were resuspended and seeded into assay plate (2×10⁵ cells/well) in 50 μl FACS buffer. […] Cells were incubated with antibodies at 4° C. for 1 hour. […] (d) Step (b) was repeated and the cells were resuspended with 100 μl diluted 2nd antibody, incubated at 4° C. for 1 hour in the dark. [0442] (e) Step (b) was repeated and the cells were resuspended with 100 μl FACS buffer. The cells were kept in dark for FACS analysis.

Row | Binder | EC50 [nM] | Max MFI [MFI]
1 | B1 | 1.36 | 48400
2 | B2 | 1.55 | 43300
3 | B3 | 0.54 | 47300
4 | B4 | 1.09 | 54500
5 | B5 | 1.23 | 41000
6 | B6 | 1.99 | 48200
7 | B7 | 0.016 | 39700
8 | B8 | 1.6 | 38300
9 | B9 | 1.4 | 45000
10 | B10 | 1.41 | 45200
11 | B11 | 1.43 | 46800
12 | B12 | 1.66 | 46000
13 | B13 | 1.52 | 46200
14 | B14 | 1.75 | 44300

The binders below were run against T1, human LILRB4 (assay: cell-based or functional assay).

Row | Binder | ADCP (%) at 133.3 nM, macrophages and MV-4-11 cells [%]
15 | B1 | 20.4
16 | B2 | 24.2
17 | B3 | 11.8
18 | B4 | 14.1
19 | B5 | 9.35
20 | B6 | 14.8
21 | B7 | 21.8
22 | B8 | 27.9
23 | B9 | 11
24 | B10 | 13.7
25 | B11 | 12.1
26 | B12 | 16.1
27 | B13 | 16.3
28 | B14 | 14.8

What follows are binders tested against T2, human LILRB3 (human, UniProt O75022 24-631) (assay: FACS, 293F-hLILRB3 cells).
T2 construct: whole, on cells; also called hLILRB3
T2 sequence (O75022 24-631): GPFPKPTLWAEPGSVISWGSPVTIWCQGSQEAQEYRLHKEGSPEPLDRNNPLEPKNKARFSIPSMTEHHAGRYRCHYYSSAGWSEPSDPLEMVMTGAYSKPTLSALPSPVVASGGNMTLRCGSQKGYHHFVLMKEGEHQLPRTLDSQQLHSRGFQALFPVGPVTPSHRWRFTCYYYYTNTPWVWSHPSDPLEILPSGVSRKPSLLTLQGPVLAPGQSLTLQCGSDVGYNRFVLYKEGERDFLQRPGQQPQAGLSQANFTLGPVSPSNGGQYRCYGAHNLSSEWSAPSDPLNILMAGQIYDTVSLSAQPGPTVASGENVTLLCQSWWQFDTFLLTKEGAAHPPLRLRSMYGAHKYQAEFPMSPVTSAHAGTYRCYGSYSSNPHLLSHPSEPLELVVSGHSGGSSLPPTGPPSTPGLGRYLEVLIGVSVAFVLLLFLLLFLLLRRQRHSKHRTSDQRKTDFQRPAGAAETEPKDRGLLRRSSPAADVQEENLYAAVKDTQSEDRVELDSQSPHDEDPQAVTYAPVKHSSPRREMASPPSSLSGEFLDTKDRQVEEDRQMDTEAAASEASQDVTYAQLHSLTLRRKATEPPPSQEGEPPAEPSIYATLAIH
Procedure: as §1

Row | Binder | EC50 [nM] | binding result
29 | B1 | 12.8 | –
30 | B2 | – | no binding (tested: up to 66.67 nM)
31 | B3 | – | no binding (tested: up to 66.67 nM)
32 | B4 | – | no binding (tested: up to 66.67 nM)
33 | B5 | – | no binding (tested: up to 66.67 nM)
34 | B6 | – | no binding (tested: up to 66.67 nM)
35 | B7 | – | no binding (tested: up to 66.67 nM)
36 | B8 | – | no binding (tested: up to 66.67 nM)
37 | B9 | – | no binding (tested: up to 66.67 nM)
38 | B10 | – | no binding (tested: up to 66.67 nM)
39 | B11 | – | no binding (tested: up to 66.67 nM)
40 | B12 | – | no binding (tested: up to 66.67 nM)
41 | B13 | – | no binding (tested: up to 66.67 nM)
42 | B14 | – | no binding (tested: up to 66.67 nM)

The binders below were run against T3, human LILRA6 protein (human, UniProt Q6PI73 24-447, limits assumed) (assay: ELISA, LILRA6 protein).
T3 construct: protein for ELISA; construct not described; also called hLILRA6 protein
T3 sequence (Q6PI73 24-447 limits assumed): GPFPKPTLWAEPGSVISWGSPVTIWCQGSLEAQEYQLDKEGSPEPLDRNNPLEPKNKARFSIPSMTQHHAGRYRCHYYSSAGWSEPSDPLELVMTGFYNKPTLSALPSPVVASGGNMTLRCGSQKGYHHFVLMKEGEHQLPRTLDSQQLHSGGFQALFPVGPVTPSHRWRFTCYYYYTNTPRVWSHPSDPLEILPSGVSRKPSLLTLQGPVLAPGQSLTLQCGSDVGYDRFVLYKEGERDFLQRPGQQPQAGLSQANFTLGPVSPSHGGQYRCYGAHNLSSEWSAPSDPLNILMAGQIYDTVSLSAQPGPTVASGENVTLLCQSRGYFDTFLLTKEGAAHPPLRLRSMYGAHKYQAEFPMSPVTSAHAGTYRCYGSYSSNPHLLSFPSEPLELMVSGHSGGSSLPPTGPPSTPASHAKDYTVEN

Row | Binder | ELISA(OD450) | binding result
43 | B1 | 0.32 | –
44 | B2 | 0.687 | –
45 | B3 | – | no binding
46 | B4 | 0.353 | –
47 | B5 | 0.576 | –
48 | B6 | – | no binding
49 | B7 | 0.157 | –
50 | B8 | – | no binding
51 | B9 | – | no binding
52 | B10 | – | no binding
53 | B11 | – | no binding
54 | B12 | – | no binding
55 | B13 | – | no binding
56 | B14 | – | no binding

Molecular target: T1, human LILRB4
Assay: cell-based or functional assay
Remark: another data set of the same source

Row | Binder | Max cell cytotoxicity (%), ADCC on THP-1 cells [%] | EC50 (nM), ADCC on THP-1 cells [nM]
57 | B1 | 14.5 | –
58 | B2 | 11 | –
59 | B3 | 13.9 | –
60 | B4 | 14.6 | –
61 | B5 | 31.1 | 1.38
62 | B6 | 17.9 | –
63 | B7 | 13.9 | 248
64 | B8 | 39.6 | 7.34
65 | B9 | 11.7 | –
66 | B10 | 16.6 | –
67 | B11 | 20.2 | –
68 | B12 | 15.2 | –
69 | B13 | 18.7 | –
70 | B14 | 16.4 | –

Molecular target: T1, human LILRB4
Assay: cell-based or functional assay
Remark: another data set of the same source

Row | Binder | FcγR stimulation (TNF-α, pg/mL) [pg/mL] | Fold change (Compared to isotype) [fold]
71 | B1 | 308 | 9.73
72 | B2 | 356 | 11.3
73 | B3 | 415 | 13.1
74 | B4 | 266 | 8.43
75 | B5 | 310 | 9.82
76 | B6 | 543 | 17.2
77 | B7 | 238 | 7.52
78 | B8 | 325 | 10.3
79 | B9 | 390 | 12.3
80 | B10 | 389 | 12.3
81 | B11 | 666 | 21.1
82 | B12 | 547 | 17.3
83 | B13 | 393 | 12.4
84 | B14 | 394 | 12.5
